Laboratory results reported in article PMC12093947, “Cobalt modulates methanol turnover of the alcohol dehydrogenase in Desulfofundulus kuznetsovii strain TPOSR” (Applied and Environmental Microbiology, 2025).

System: NC(=O)c1ccc[n+]([C@@H]2O[C@H](COP(=O)(O)OP(=O)(O)OC[C@H]3O[C@@H](n4cnc5c(N)ncnc54)[C@H](O)[C@@H]3O)[C@@H](O)[C@H]2O)c1
Test: purified protein
Conditions: without added Co, methanol 0.75-3000 mM, 50 mM Bis-tris propane, 55 °C, rapid-equilibrium, NAD+ binds first, brackets 95% confidence interval, varied: cofactor

Substance: TPOSR Adh1 (Desulfofundulus kuznetsovii)
- Km: 0.550 [0.26, 1.3] mM
- kcat: 1.76 s⁻¹
